What was measured:
FcRn (Acro Biosystems) = FcRn (Acro Biosystems) (human, UniProt P55899 24-297; P61769 21-119); experiment: BLI (Fortebio), FcRn loaded on HIS1K probe, pH 7.0
Experimental: (§1) The variant proteins were tested for affinity to FcRn at pH 7.0. The affinity of the antibody fragment for the receptor was determined using Fortebio. FcRn (Acro Biosystems) was loaded at 0.8 nm with an HIS1K probe, bound to the variant protein at various concentrations for 60 seconds and dissociated for 300 seconds.

[1] = target: T1, FcγRIIb (Acro Biosystems) (UniProt P31994 46-217, limits assumed); experiment: BLI (Fortebio), FcγR loaded on HIS1K probe, pH 7.0
T1 sequence (looked up): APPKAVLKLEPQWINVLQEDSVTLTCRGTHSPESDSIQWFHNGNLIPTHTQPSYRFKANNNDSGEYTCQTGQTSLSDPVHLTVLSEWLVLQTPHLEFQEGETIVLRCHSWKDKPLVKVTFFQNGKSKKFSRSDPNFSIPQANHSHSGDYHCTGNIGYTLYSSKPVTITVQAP
Experimental: as §1, with “to FcγRI, FcγRIIa-131H, FcγRIIa-131R, FcγRIIb, FcγRIIIa-158F, FcγRIIIa-158V” for “to FcRn”, “Fortebio. Different FcγR” for “Fortebio. FcRn”, “at 0.5” for “at 0.8”, “for 60” for “for 300”

[2] = target: T2, FcγRIIIa-158F (Acro Biosystems) (UniProt P08637 17-208); experiment: BLI (Fortebio), FcγR loaded on HIS1K probe, pH 7.0
T2 construct: The 158V/F allotypes are those of the human receptor
T2 sequence (P08637 17-208 limits assumed): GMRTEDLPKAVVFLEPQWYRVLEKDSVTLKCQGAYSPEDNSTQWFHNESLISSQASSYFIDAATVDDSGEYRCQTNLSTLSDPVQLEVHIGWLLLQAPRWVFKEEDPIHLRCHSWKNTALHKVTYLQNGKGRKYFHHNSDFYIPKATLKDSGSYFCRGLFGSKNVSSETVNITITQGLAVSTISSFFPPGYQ
Experimental: as §1, with “to FcγRI, FcγRIIa-131H, FcγRIIa-131R, FcγRIIb, FcγRIIIa-158F, FcγRIIIa-158V” for “to FcRn”, “Fortebio. Different FcγR” for “Fortebio. FcRn”, “at 0.5” for “at 0.8”, “for 60” for “for 300”

[3] = target: T3, FcγRIIa-131R (Acro Biosystems) (UniProt P12318 36-218, limits assumed); experiment: BLI (Fortebio), FcγR loaded on HIS1K probe, pH 7.0
T3 construct: The 131H/R allotypes are those of the human receptor
T3 sequence (looked up): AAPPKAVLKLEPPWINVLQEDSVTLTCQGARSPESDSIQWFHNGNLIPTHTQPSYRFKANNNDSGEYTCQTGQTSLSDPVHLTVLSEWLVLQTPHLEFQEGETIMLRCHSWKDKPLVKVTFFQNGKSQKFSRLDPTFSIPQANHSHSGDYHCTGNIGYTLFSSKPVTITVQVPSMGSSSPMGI
Experimental: as §1, with “to FcγRI, FcγRIIa-131H, FcγRIIa-131R, FcγRIIb, FcγRIIIa-158F, FcγRIIIa-158V” for “to FcRn”, “Fortebio. Different FcγR” for “Fortebio. FcRn”, “at 0.5” for “at 0.8”, “for 60” for “for 300”

FcγRI (Acro Biosystems) [4] = target: T4, FcγRI (Acro Biosystems) (UniProt P12314 16-288, limits assumed); experiment: BLI (Fortebio), FcγR loaded on HIS1K probe, pH 7.0
T4 construct: also called CD64
T4 sequence (P12314 16-288 limits assumed): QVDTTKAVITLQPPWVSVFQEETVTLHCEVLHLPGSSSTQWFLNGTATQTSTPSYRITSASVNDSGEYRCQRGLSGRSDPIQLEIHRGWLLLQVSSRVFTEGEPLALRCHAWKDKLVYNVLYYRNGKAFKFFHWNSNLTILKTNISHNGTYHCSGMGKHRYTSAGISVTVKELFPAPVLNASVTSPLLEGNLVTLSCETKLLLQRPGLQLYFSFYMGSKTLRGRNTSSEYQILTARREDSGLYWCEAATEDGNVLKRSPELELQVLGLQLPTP
Experimental: as §1, with “to FcγRI, FcγRIIa-131H, FcγRIIa-131R, FcγRIIb, FcγRIIIa-158F, FcγRIIIa-158V” for “to FcRn”, “Fortebio. Different FcγR” for “Fortebio. FcRn”, “at 0.5” for “at 0.8”, “for 60” for “for 300”

[5] = target: T5, FcγRIIIa-158V (Acro Biosystems) (UniProt P08637 17-208); experiment: BLI (Fortebio), FcγR loaded on HIS1K probe, pH 7.0
T5 construct: The 158V/F allotypes are those of the human receptor
T5 sequence (P08637 17-208 F176V limits assumed): as the sequence (P08637 17-208 limits assumed) above, with F160V counted along it
Experimental: as §1, with “to FcγRI, FcγRIIa-131H, FcγRIIa-131R, FcγRIIb, FcγRIIIa-158F, FcγRIIIa-158V” for “to FcRn”, “Fortebio. Different FcγR” for “Fortebio. FcRn”, “at 0.5” for “at 0.8”, “for 60” for “for 300”

[6] = target: T6, FcγRIIa-131H (Acro Biosystems) (UniProt P12318 36-218, limits assumed); experiment: BLI (Fortebio), FcγR loaded on HIS1K probe, pH 7.0
T6 construct: The 131H/R allotypes are those of the human receptor
T6 sequence (looked up): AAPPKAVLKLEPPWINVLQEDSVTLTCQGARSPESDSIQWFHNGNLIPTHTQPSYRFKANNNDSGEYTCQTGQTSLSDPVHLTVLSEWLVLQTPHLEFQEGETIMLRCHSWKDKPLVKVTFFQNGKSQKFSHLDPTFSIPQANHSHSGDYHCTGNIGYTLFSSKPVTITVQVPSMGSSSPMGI
Experimental: as §1, with “to FcγRI, FcγRIIa-131H, FcγRIIa-131R, FcγRIIb, FcγRIIIa-158F, FcγRIIIa-158V” for “to FcRn”, “Fortebio. Different FcγR” for “Fortebio. FcRn”, “at 0.5” for “at 0.8”, “for 60” for “for 300”

[7] = target: T1, FcγRIIb (Acro Biosystems); experiment: BLI (Fortebio), ratio of KD against m1
Experimental: as §1, with “to FcγRI, FcγRIIa-131H, FcγRIIa-131R, FcγRIIb, FcγRIIIa-158F, FcγRIIIa-158V” for “to FcRn”, “Fortebio. Different FcγR” for “Fortebio. FcRn”, “at 0.5” for “at 0.8”, “for 60” for “for 300”

[8] = target: T2, FcγRIIIa-158F (Acro Biosystems); experiment: BLI (Fortebio), ratio of KD against m1
Experimental: as §1, with “to FcγRI, FcγRIIa-131H, FcγRIIa-131R, FcγRIIb, FcγRIIIa-158F, FcγRIIIa-158V” for “to FcRn”, “Fortebio. Different FcγR” for “Fortebio. FcRn”, “at 0.5” for “at 0.8”, “for 60” for “for 300”

[9] = target: T3, FcγRIIa-131R (Acro Biosystems); experiment: BLI (Fortebio), ratio of KD against m1
Experimental: as §1, with “to FcγRI, FcγRIIa-131H, FcγRIIa-131R, FcγRIIb, FcγRIIIa-158F, FcγRIIIa-158V” for “to FcRn”, “Fortebio. Different FcγR” for “Fortebio. FcRn”, “at 0.5” for “at 0.8”, “for 60” for “for 300”

FcγRI (Acro Biosystems) [10] = target: T4, FcγRI (Acro Biosystems); experiment: BLI (Fortebio), ratio of KD against m1
Experimental: as §1, with “to FcγRI, FcγRIIa-131H, FcγRIIa-131R, FcγRIIb, FcγRIIIa-158F, FcγRIIIa-158V” for “to FcRn”, “Fortebio. Different FcγR” for “Fortebio. FcRn”, “at 0.5” for “at 0.8”, “for 60” for “for 300”

[11] = target: T5, FcγRIIIa-158V (Acro Biosystems); experiment: BLI (Fortebio), ratio of KD against m1
Experimental: as §1, with “to FcγRI, FcγRIIa-131H, FcγRIIa-131R, FcγRIIb, FcγRIIIa-158F, FcγRIIIa-158V” for “to FcRn”, “Fortebio. Different FcγR” for “Fortebio. FcRn”, “at 0.5” for “at 0.8”, “for 60” for “for 300”

[12] = target: T6, FcγRIIa-131H (Acro Biosystems); experiment: BLI (Fortebio), ratio of KD against m1
Experimental: as §1, with “to FcγRI, FcγRIIa-131H, FcγRIIa-131R, FcγRIIb, FcγRIIIa-158F, FcγRIIIa-158V” for “to FcRn”, “Fortebio. Different FcγR” for “Fortebio. FcRn”, “at 0.5” for “at 0.8”, “for 60” for “for 300”

Sequence of FcRn (Acro Biosystems) (P55899 24-297 limits assumed, chain 1 of 2): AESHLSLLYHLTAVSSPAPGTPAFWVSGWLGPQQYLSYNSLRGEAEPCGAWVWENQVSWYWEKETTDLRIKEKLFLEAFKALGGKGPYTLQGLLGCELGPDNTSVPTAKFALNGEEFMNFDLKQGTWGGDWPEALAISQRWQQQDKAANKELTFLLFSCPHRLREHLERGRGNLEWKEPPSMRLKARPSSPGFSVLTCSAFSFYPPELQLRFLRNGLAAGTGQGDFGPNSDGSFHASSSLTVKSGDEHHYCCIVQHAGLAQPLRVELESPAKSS
Sequence of FcRn (Acro Biosystems) (P61769 21-119 limits assumed, chain 2 of 2): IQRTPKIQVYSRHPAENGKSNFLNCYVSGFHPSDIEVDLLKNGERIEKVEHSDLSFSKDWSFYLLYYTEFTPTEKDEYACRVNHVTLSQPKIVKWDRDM

B1: Fc variant m4 (other)
chain: DKTHTCPPCPAPELLGGPSVFLAPPKPKDTLYITREPEVTCVVVDVSHEDPEVKFNWYVDGVEVHNAKTKPREEQYNSTYRVVSVLTVLHQDWLNGKEYKCKVSNKALPAPIEKTISKAKGQPREPQVYTLPPSRDELTKNQVSLTCLVKGFYPSDIAVEWESNGQPENNYKTTPPVLDSDGSFFLYSKLTVDKSRWQQGNVFSCSVMHEALKFHYTQKSLSLSP
modifications: N-glycan with 2,6-sialic acid (variant co-expressed with human GT and ST in ExpiCHO-S cells)
notes: Fc fragment variant of IgG1
Question: For B1, which kon (FcRn (Acro Biosystems)) is on record?
Answer: 298000 M⁻¹ s⁻¹

B2: Fc variant m8 (other)
chain: DKTHTCPPCPAPELLGGPSVFLFPPKPKDTLYITREPEVTCVVVDVSHEDPEVKFNWYVDGVEVHNAKTKPREEQANSTYRVVSVLTVLHQDWLNGKEYKCKVSNKALPAPIEKTISKAKGQPREPQVYTLPPSRDELTKNQVSLTCLVKGFYPSDIAVEWESNGQPENNYKTTPPVLDSDGSFFLYSKLTVDKSRWQQGNVFSCSVMHEALKFHYTQKSLSLSP
notes: Fc fragment variant of IgG1, co-expressed with human GT and ST
Question: For B2, which kon (FcRn (Acro Biosystems)) is on record?
Answer: 115000 M⁻¹ s⁻¹

B3: Fc variant m11 (other)
chain: DKTHTCPPCPAPELLGGPSVFLFPPKPKDTLYITREPEVTCVVVDVSHEDPEVKFNWYVDGVEVHNAKTKPREEQYNSTARVVSVLTVLHQDWLNGKEYKCKVSNKALPAPIEKTISKAKGQPREPQVYTLPPSRDELTKNQVSLTCLVKGFYPSDIAVEWESNGQPENNYKTTPPVLDSDGSFFLYSKLTVDKSRWQQGNVFSCSVMHEALKFHYTQKSLSLSP
modifications: N-glycan with 2,6-sialic acid (variant co-expressed with human GT and ST in ExpiCHO-S cells)
notes: Fc fragment variant of IgG1
Question: With B3 as the binder, how does the kon (FcRn (Acro Biosystems)) read?
Answer: 38300 M⁻¹ s⁻¹

B4: Fc variant m3 (other)
chain: DKTHTCPPCPAPELLGGPSVALFPPKPKDTLYITREPEVTCVVVDVSHEDPEVKFNWYVDGVEVHNAKTKPREEQYNSTYRVVSVLTVLHQDWLNGKEYKCKVSNKALPAPIEKTISKAKGQPREPQVYTLPPSRDELTKNQVSLTCLVKGFYPSDIAVEWESNGQPENNYKTTPPVLDSDGSFFLYSKLTVDKSRWQQGNVFSCSVMHEALKFHYTQKSLSLSP
modifications: N-glycan with 2,6-sialic acid (variant co-expressed with human GT and ST in ExpiCHO-S cells)
notes: Fc fragment variant of IgG1
Question: Which kon (FcRn (Acro Biosystems)) does the source give for B4 here?
Answer: 272000 M⁻¹ s⁻¹

B5: Fc variant m6 (other)
chain: DKTHTCPPCPAPELLGGPSVFLFPPKPKDTLYITREPEVTCVVADVSHEDPEVKFNWYVDGVEVHNAKTKPREEQYNSTYRVVSVLTVLHQDWLNGKEYKCKVSNKALPAPIEKTISKAKGQPREPQVYTLPPSRDELTKNQVSLTCLVKGFYPSDIAVEWESNGQPENNYKTTPPVLDSDGSFFLYSKLTVDKSRWQQGNVFSCSVMHEALKFHYTQKSLSLSP
modifications: N-glycan with 2,6-sialic acid (variant co-expressed with human GT and ST in ExpiCHO-S cells)
notes: Fc fragment variant of IgG1
Question: Which results are given for B5?
Answer: Kd [1]: 6820 nM; Kd [2]: 9670 nM; Kd [3]: 1400 nM; Kd (FcγRI (Acro Biosystems) [4]): 319 nM; Kd [5]: 1760 nM; Kd [6]: 2560 nM; Fold change of m6 relative to m1 [7]: 1.57 fold; Fold change of m6 relative to m1 [8]: 0.75 fold; Fold change of m6 relative to m1 [9]: 1.46 fold; Fold change of m6 relative to m1 (FcγRI (Acro Biosystems) [10]): 0.99 fold; Fold change of m6 relative to m1 [11]: 0.97 fold; Fold change of m6 relative to m1 [12]: 1 fold; kon (FcRn (Acro Biosystems)): 212000 M⁻¹ s⁻¹

Source: US20250043026A1 (SHANGHAI BAO PHARMACEUTICALS, published 2025)
